According to article PMC11161758 (Proceedings of the National Academy of Sciences of the …, 2024):

Biological target: T1, N-terminal FLAG tag-p22phox (human, UniProt P13498 1-195)
T1 sequence: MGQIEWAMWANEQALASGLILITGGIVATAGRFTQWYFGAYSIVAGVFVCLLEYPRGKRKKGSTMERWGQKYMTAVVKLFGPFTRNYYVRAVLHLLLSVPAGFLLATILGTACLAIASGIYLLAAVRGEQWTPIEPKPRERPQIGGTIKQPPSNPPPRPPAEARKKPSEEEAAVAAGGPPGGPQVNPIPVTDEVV
Test: cryo-EM structure

stoichiometry N: 1
B1: NOX2 (gp91phox), catalytic subunit of phagocyte NADPH oxidase (enzyme)
chain: MGNWAVNEGLSIFVILVWLGLNVFLFVWYYRVYDIPPKFFYTRKLLGSALALARAPAACLNFNCMLILLPVCRNLLSFLRGSSACCSTRVRRQLDRNLTFHKMVAWMIALHSAIHTIAHLFNVEWCVNARVNNSDPYSVALSELGDRQNESYLNFARKRIKNPEGGLYLAVTLLAGITGVVITLCLILIITSSTKTIRRSYFEVFWYTHHLFVIFFIGLAIHGAERIVRGQTAESLAVHNITVCEQKISEWGKIKECPIPQFAGNPPMTWKWIVGPMFLYLCERLVRFWRSQQKVVITKVVTHPFKTIELQMKKKGFKMEVGQYIFVKCPKVSKLEWHPFTLTSAPEEDFFSIHIRIVGDWTEGLFNACGCDKQEFQDAWKLPKIAVDGPFGTASEDVFSYEVVMLVGAGIGVTPFASILKSVWYKYCNNATNLKLKKIYFYWLCRDTHAFEWFADLLQLLESQMQERNNAGFLSYNIYLTGWDESQANHFAVHHDEEKDVITGLKQKTLYGRPNWDNEFKTIASQHPNTRIGVFLCGPEALAETLSKQSISNSESGPRGVHFIFNKENF
modifications: N-glycan moieties at asparagines 132, 149 and 240; two hemes bound
